Experimental data as given in publication PMC9858354 (2023).

Biological target: T1, human C-C motif chemokine receptor-like 2 (CCRL2) isoform b, on HEK-huCCRL2 cells (human, UniProt O00421 1-344)
T1 chain: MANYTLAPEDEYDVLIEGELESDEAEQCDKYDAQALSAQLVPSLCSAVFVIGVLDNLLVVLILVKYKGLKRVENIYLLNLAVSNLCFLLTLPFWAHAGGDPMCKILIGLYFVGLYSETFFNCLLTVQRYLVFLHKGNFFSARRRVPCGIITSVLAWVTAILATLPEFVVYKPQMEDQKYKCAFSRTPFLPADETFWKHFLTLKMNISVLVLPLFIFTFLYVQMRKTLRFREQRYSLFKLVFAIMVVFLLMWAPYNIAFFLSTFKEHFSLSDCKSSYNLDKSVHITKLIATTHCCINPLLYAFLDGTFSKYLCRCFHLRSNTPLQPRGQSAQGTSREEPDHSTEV
Assay: SPR

B1: recombinant active human chemerin (residues 21-157), unlabeled (ligand)
chain: ELTEAQRRGLQVALEEFHKHPPVQWAFQETSVESAVDTPFPAGIFVRLEFKLQQTSCRKRDWKKPECKVRPNGRKRKCLACIKLGSEDKVLGRLVHCPIETQVLREAEEHQETQCLRVQRAGEDPHSFYFPGQFAFS
Kd: 7.48 nM
